17 molecules from patent US9657062B2, “Ghrelin analogues” (Zealand Pharma A/S, priority 2012, dated 2017) can be followed below.

This assay deals with human growth hormone secretagogue receptor type 1a (human, UniProt Q92847 1-366). Nature of the assay: cell-based or functional assay.

Bridges are numbered along the chain shown (N, C = ends). [ ]: non-standard residue; d: D form. The star is where a group is joined. Octanoyl = CCCCCCCC(=O)*; Dap = NC[C@H](N)C(=O)O; Octyl = CCCCCCCC*

human growth hormone secretagogue receptor type 1a, sequence (Q92847 whole entry): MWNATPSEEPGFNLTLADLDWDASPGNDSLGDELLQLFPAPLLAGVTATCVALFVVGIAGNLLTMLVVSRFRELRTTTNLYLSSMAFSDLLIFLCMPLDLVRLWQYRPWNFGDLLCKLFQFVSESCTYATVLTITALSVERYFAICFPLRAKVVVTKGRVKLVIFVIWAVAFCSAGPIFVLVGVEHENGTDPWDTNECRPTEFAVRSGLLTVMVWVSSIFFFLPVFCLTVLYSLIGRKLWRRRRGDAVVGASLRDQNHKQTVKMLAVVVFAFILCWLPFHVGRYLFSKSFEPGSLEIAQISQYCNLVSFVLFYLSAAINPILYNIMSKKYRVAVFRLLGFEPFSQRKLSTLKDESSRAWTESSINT

For the molecule H-GSSFLSPEHQKAQQRKESKKPPAKLQPR-OH [rat ghrelin without octanoyl moiety at position 3], the “EC50 (nM); Ca2+ induction in HEK293 cells stably expressing the human ghrelin receptor” value (“EC50 (nM); Ca2+ induction” for short) is over 1000 nM.

Consider H-PS[NH‑CH(n-C10H21)‑C(O)]FLSPEHQRVQQRKES-NH2 [H-PS-[NH-CH(n-C10H21)-C(O)]-FLSPEHQRVQQRKES-NH2], for which the “EC50 (nM); Ca2+ induction” value worked out at 0.164 nM.

B1: H-PS-Dap(N-octanoyl)-FLSPY-NH2 (peptide)
peptide: H-PS[Dap](Octanoyl)FLSPY-NH2
SMILES: CCCCCCCC(=O)NC[C@H](NC(=O)[C@H](CO)NC(=O)[C@@H]1CCCN1)C(=O)N[C@@H](Cc1ccccc1)C(=O)N[C@@H](CC(C)C)C(=O)N[C@@H](CO)C(=O)N1CCC[C@H]1C(=O)N[C@@H](Cc1ccc(O)cc1)C(N)=O
Take B1: the “EC50 (nM); Ca2+ induction” value is 0.195 nM.

B2: H-GS-S(octanoyl)-FLSPEHE()RVQK()RKESKKPPAKLQPR-OH (peptide)
peptide: H-GSS(Octanoyl)FLSPEHERVQKRKESKKPPAKLQPR-OH
modifications: lactam 10-14
SMILES: CCCCCCCC(=O)OC[C@H](NC(=O)[C@H](CO)NC(=O)CN)C(=O)N[C@@H](Cc1ccccc1)C(=O)N[C@@H](CC(C)C)C(=O)N[C@@H](CO)C(=O)N1CCC[C@H]1C(=O)N[C@@H](CCC(=O)O)C(=O)N[C@@H](Cc1c[nH]cn1)C(=O)N[C@H]1CCC(=O)NCCCC[C@@H](C(=O)N[C@@H](CCCNC(=N)N)C(=O)N[C@@H](CCCCN)C(=O)N[C@@H](CCC(=O)O)C(=O)N[C@@H](CO)C(=O)N[C@@H](CCCCN)C(=O)N[C@@H](CCCCN)C(=O)N2CCC[C@H]2C(=O)N2CCC[C@H]2C(=O)N[C@@H](C)C(=O)N[C@@H](CCCCN)C(=O)N[C@@H](CC(C)C)C(=O)N[C@@H](CCC(N)=O)C(=O)N2CCC[C@H]2C(=O)N[C@@H](CCCNC(=N)N)C(=O)O)NC(=O)[C@H](CCC(N)=O)NC(=O)[C@H](C(C)C)NC(=O)[C@H](CCCNC(=N)N)NC1=O
For B2, the “EC50 (nM); Ca2+ induction” value turned out to be 0.597 nM.

B3: H-Orn-S(O-octyl)-FLSPEHQRVQQRKESKKPPAKLQPR-NH2 (peptide)
peptide: RSFLSPEHQRVQQRKESKKPPAKLQPR
modifications: N-terminal Orn (ornithine, stands for X1 and X2 together); next residue Ser(O-octyl) (position 3 of the formula); C-terminal amide (-NH2)
B3: the “EC50 (nM); Ca2+ induction” value was determined as 0.527 nM.

B4: H-PS-Dap(N-octanoyl)-FL-NH2 (peptide)
peptide: H-PS[Dap](Octanoyl)FL-NH2
SMILES: CCCCCCCC(=O)NC[C@H](NC(=O)[C@H](CO)NC(=O)[C@@H]1CCCN1)C(=O)N[C@@H](Cc1ccccc1)C(=O)N[C@@H](CC(C)C)C(N)=O
On to B4, for which the “EC50 (nM); Ca2+ induction” value came to 1.69 nM.

B5: H-PS-S(O-octyl)-FLSPEHQRVQRKESKKPPAKLQPR-NH2 (peptide)
peptide: H-PSS(Octyl)FLSPEHQRVQRKESKKPPAKLQPR-NH2
SMILES: CCCCCCCCOC[C@H](NC(=O)[C@H](CO)NC(=O)[C@@H]1CCCN1)C(=O)N[C@@H](Cc1ccccc1)C(=O)N[C@@H](CC(C)C)C(=O)N[C@@H](CO)C(=O)N1CCC[C@H]1C(=O)N[C@@H](CCC(=O)O)C(=O)N[C@@H](Cc1c[nH]cn1)C(=O)N[C@@H](CCC(N)=O)C(=O)N[C@@H](CCCNC(=N)N)C(=O)N[C@H](C(=O)N[C@@H](CCC(N)=O)C(=O)N[C@@H](CCCNC(=N)N)C(=O)N[C@@H](CCCCN)C(=O)N[C@@H](CCC(=O)O)C(=O)N[C@@H](CO)C(=O)N[C@@H](CCCCN)C(=O)N[C@@H](CCCCN)C(=O)N1CCC[C@H]1C(=O)N1CCC[C@H]1C(=O)N[C@@H](C)C(=O)N[C@@H](CCCCN)C(=O)N[C@@H](CC(C)C)C(=O)N[C@@H](CCC(N)=O)C(=O)N1CCC[C@H]1C(=O)N[C@@H](CCCNC(=N)N)C(N)=O)C(C)C
Take B5: the “EC50 (nM); Ca2+ induction” value was found to be 0.33 nM.

B6: H-GS-S(octanoyl)-FLSPEHQRVQQRK()ESKE()PPAKLQPR-OH (peptide)
peptide: H-GSS(Octanoyl)FLSPEHQRVQQRKESKEPPAKLQPR-OH
modifications: lactam 16-20
SMILES: CCCCCCCC(=O)OC[C@H](NC(=O)[C@H](CO)NC(=O)CN)C(=O)N[C@@H](Cc1ccccc1)C(=O)N[C@@H](CC(C)C)C(=O)N[C@@H](CO)C(=O)N1CCC[C@H]1C(=O)N[C@@H](CCC(=O)O)C(=O)N[C@@H](Cc1c[nH]cn1)C(=O)N[C@@H](CCC(N)=O)C(=O)N[C@@H](CCCNC(=N)N)C(=O)N[C@H](C(=O)N[C@@H](CCC(N)=O)C(=O)N[C@@H](CCC(N)=O)C(=O)N[C@@H](CCCNC(=N)N)C(=O)N[C@H]1CCCCNC(=O)CC[C@@H](C(=O)N2CCC[C@H]2C(=O)N2CCC[C@H]2C(=O)N[C@@H](C)C(=O)N[C@@H](CCCCN)C(=O)N[C@@H](CC(C)C)C(=O)N[C@@H](CCC(N)=O)C(=O)N2CCC[C@H]2C(=O)N[C@@H](CCCNC(=N)N)C(=O)O)NC(=O)[C@H](CCCCN)NC(=O)[C@H](CO)NC(=O)[C@H](CCC(=O)O)NC1=O)C(C)C
In the case of B6, the “EC50 (nM); Ca2+ induction” value amounted to 1.29 nM.

B7: Ac-Orn-S(O-octyl)-FLSPEHQRVQQRKESKKPPAKLQPR-NH2 (peptide)
peptide: RSFLSPEHQRVQQRKESKKPPAKLQPR
modifications: N-terminal Ac-Orn (acetylated ornithine, stands for X1 and X2 together); next residue Ser(O-octyl) (position 3 of the formula); C-terminal amide (-NH2)
In the case of B7, the “EC50 (nM); Ca2+ induction” value is 1.4 nM.

B8: H-PS-S(O-octyl)-FLSPEHE()RVQK()RKESKKPPAKLQPR-NH2 (peptide)
peptide: H-PSS(Octyl)FLSPEHERVQKRKESKKPPAKLQPR-NH2
modifications: lactam 10-14
SMILES: CCCCCCCCOC[C@H](NC(=O)[C@H](CO)NC(=O)[C@@H]1CCCN1)C(=O)N[C@@H](Cc1ccccc1)C(=O)N[C@@H](CC(C)C)C(=O)N[C@@H](CO)C(=O)N1CCC[C@H]1C(=O)N[C@@H](CCC(=O)O)C(=O)N[C@@H](Cc1c[nH]cn1)C(=O)N[C@H]1CCC(=O)NCCCC[C@@H](C(=O)N[C@@H](CCCNC(=N)N)C(=O)N[C@@H](CCCCN)C(=O)N[C@@H](CCC(=O)O)C(=O)N[C@@H](CO)C(=O)N[C@@H](CCCCN)C(=O)N[C@@H](CCCCN)C(=O)N2CCC[C@H]2C(=O)N2CCC[C@H]2C(=O)N[C@@H](C)C(=O)N[C@@H](CCCCN)C(=O)N[C@@H](CC(C)C)C(=O)N[C@@H](CCC(N)=O)C(=O)N2CCC[C@H]2C(=O)N[C@@H](CCCNC(=N)N)C(N)=O)NC(=O)[C@H](CCC(N)=O)NC(=O)[C@H](C(C)C)NC(=O)[C@H](CCCNC(=N)N)NC1=O
On to B8, for which the “EC50 (nM); Ca2+ induction” value is 0.155 nM.

B9: H-PS-S(O-octyl)-FLSPE()HQRK()QQRKESKKPPAKLQPR-NH2 (peptide)
peptide: H-PSS(Octyl)FLSPEHQRKQQRKESKKPPAKLQPR-NH2
modifications: lactam 8-12
SMILES: CCCCCCCCOC[C@H](NC(=O)[C@H](CO)NC(=O)[C@@H]1CCCN1)C(=O)N[C@@H](Cc1ccccc1)C(=O)N[C@@H](CC(C)C)C(=O)N[C@@H](CO)C(=O)N1CCC[C@H]1C(=O)N[C@H]1CCC(=O)NCCCC[C@@H](C(=O)N[C@@H](CCC(N)=O)C(=O)N[C@@H](CCC(N)=O)C(=O)N[C@@H](CCCNC(=N)N)C(=O)N[C@@H](CCCCN)C(=O)N[C@@H](CCC(=O)O)C(=O)N[C@@H](CO)C(=O)N[C@@H](CCCCN)C(=O)N[C@@H](CCCCN)C(=O)N2CCC[C@H]2C(=O)N2CCC[C@H]2C(=O)N[C@@H](C)C(=O)N[C@@H](CCCCN)C(=O)N[C@@H](CC(C)C)C(=O)N[C@@H](CCC(N)=O)C(=O)N2CCC[C@H]2C(=O)N[C@@H](CCCNC(=N)N)C(N)=O)NC(=O)[C@H](CCCNC(=N)N)NC(=O)[C@H](CCC(N)=O)NC(=O)[C@H](Cc2c[nH]cn2)NC1=O
For B9, the “EC50 (nM); Ca2+ induction” value is 0.365 nM. For H-PS[NH‑CH(n-C10H21)‑C(O)]FLSPK-NH2 [H-PS-[NH-CH(n-C10H21)-C(O)]-FLSPK-NH2], the “EC50 (nM); Ca2+ induction” value turned out to be 0.432 nM.

In the case of H-PS[NH‑CH(n-C10H21)‑C(O)]FLSPEHQRVQQRKESKKPPA-NH2 [H-PS-[NH-CH(n-C10H21)-C(O)]-FLSPEHQRVQQRKESKKPPA-NH2], the “EC50 (nM); Ca2+ induction” value was 0.255 nM.

B10: H-PS-Dap(N-octanoyl)-FLSPK-NH2 (peptide)
peptide: H-PS[Dap](Octanoyl)FLSPK-NH2
SMILES: CCCCCCCC(=O)NC[C@H](NC(=O)[C@H](CO)NC(=O)[C@@H]1CCCN1)C(=O)N[C@@H](Cc1ccccc1)C(=O)N[C@@H](CC(C)C)C(=O)N[C@@H](CO)C(=O)N1CCC[C@H]1C(=O)N[C@@H](CCCCN)C(N)=O
On to B10, for which the “EC50 (nM); Ca2+ induction” value was 0.364 nM.

B11: H-GS-S(octanoyl)-FLSPE()HQRK()QQRKESKKPPAKLQPR-OH (peptide)
peptide: H-GSS(Octanoyl)FLSPEHQRKQQRKESKKPPAKLQPR-OH
modifications: lactam 8-12
SMILES: CCCCCCCC(=O)OC[C@H](NC(=O)[C@H](CO)NC(=O)CN)C(=O)N[C@@H](Cc1ccccc1)C(=O)N[C@@H](CC(C)C)C(=O)N[C@@H](CO)C(=O)N1CCC[C@H]1C(=O)N[C@H]1CCC(=O)NCCCC[C@@H](C(=O)N[C@@H](CCC(N)=O)C(=O)N[C@@H](CCC(N)=O)C(=O)N[C@@H](CCCNC(=N)N)C(=O)N[C@@H](CCCCN)C(=O)N[C@@H](CCC(=O)O)C(=O)N[C@@H](CO)C(=O)N[C@@H](CCCCN)C(=O)N[C@@H](CCCCN)C(=O)N2CCC[C@H]2C(=O)N2CCC[C@H]2C(=O)N[C@@H](C)C(=O)N[C@@H](CCCCN)C(=O)N[C@@H](CC(C)C)C(=O)N[C@@H](CCC(N)=O)C(=O)N2CCC[C@H]2C(=O)N[C@@H](CCCNC(=N)N)C(=O)O)NC(=O)[C@H](CCCNC(=N)N)NC(=O)[C@H](CCC(N)=O)NC(=O)[C@H](Cc2c[nH]cn2)NC1=O
On to B11, for which the “EC50 (nM); Ca2+ induction” value came out at 0.534 nM.

B12: H-PS-S(O-octyl)-FLSPK-NH2 (peptide)
peptide: H-PSS(Octyl)FLSPK-NH2
SMILES: CCCCCCCCOC[C@H](NC(=O)[C@H](CO)NC(=O)[C@@H]1CCCN1)C(=O)N[C@@H](Cc1ccccc1)C(=O)N[C@@H](CC(C)C)C(=O)N[C@@H](CO)C(=O)N1CCC[C@H]1C(=O)N[C@@H](CCCCN)C(N)=O
For B12, the “EC50 (nM); Ca2+ induction” value worked out at 0.388 nM. With H-PS[Dap](Octanoyl)FLSPEHQRVQRKESKKPPAKLQPR-NH2 [H-PS-Dap(N-octanoyl)-FLSPEHQRVQRKESKKPPAKLQPR-NH2], the “EC50 (nM); Ca2+ induction” value is 0.253 nM.
